The record followed here is a protein production outcome set (Wang et al. 2014).

This series is described as follows: label from the status in PepcDB records.

For the sequence “MFTNSGVFIMYKILEKKEIAMRNTWYKIYAPHVAKKVQPGQFVIVRAFPNGERIPLTPIMWDREEGWIVLVAFTKGKTTMKMAMELKEGDEILNVAGPLGNPAPMEKFGKILAIGAYVGIAEVYPIAKAWQEIGNDVTTLHVTFEPMVILKDYFEKAVSRHIVEPVKIDQEKSFQENTKNVTKALTAKVKELLDNENWDLVFMVGPPGDQKAVFEVVKKYGIPMKVDLHPIMVDGTGMCGACRVTVGGEVKFACVDGPEFDAYLVDWDELIHRVGFYSKLEKLALEKYMEELKAKGVI”, the protein production result was “failed”.

Consider “MFVGHLPGAYLIFRVVTPRIERMAFTAAMLGAIAPDLDMLRFYFVDGRAFHHHEYLTHRPILWTGLLLCGVLIGMRSRRIGVPLAFFGAGGLVHMLLDSIAGKIAWAWPVSDFAAPLVVVPATQSHWILSFLSHWTFAVELGITVLALVLWRWLPRRATARR”, for which the protein production result is listed as “failed”.

For “MFWTELCFILVALMIGARIGGVFLGMVGGLGVGVMVFIFGLTPSTPPIDVILIILSVVLAAASLQASGGLDLLVKLAEKILRRHPRYITLLAPFICYIFTFMSGTGHVVYSLLPVISEVARDSGIRPERPLSISVIASQQAITASPISAAMAAMIGLMAPLGVSISTIMMICVPATLIGVAMGAIATFNKGKELKDDPEYQRRLAEGLIKPAQKESKNTVVTSRAKLSVALFLTSAIVIVLLGLIPALRPMVETAKGLQPLSMSAAIQITMLSFACLIVLLCRPQVDQIISGTVFRAGALAIVCAFGLAWMSETFVNGHIALIKAEVQTLLQQHTWLIAIMMFFVSAMVSSQAATTLILLPLGLALGLPAYALIGSWPAVNGYFFIPVAGQCLAALAFDDTGTTRIGKYVLNHSFMRPGLVNVIVSVIVGLLIGKMVLA”, the protein production entry is “failed”.

With “MFYTTKSSMNQHNIFFGSSHVVVPVTKPFPFSLDGHVEDEDNLESQYLQWLEERVDENNNINDDQSVGERDVGDDDIDRLADKFIARCHEKFLLEKVESYRRFQDMLARSL”, the protein production result was “failed”.

Consider “MGAAAAPEVNMELVGHFGGTTDAVDVAGNYAYVGQGQDFLILDITNPSSPVLVSKIMTEGFVRDIKVSRNYAYVADDDNGLVIVDISNPSSPTLKGSYNIPGYTYCITVSGNYAYVADNDGLVIVDISNPSDPILKGRYAGPTGDVAVYGNYAYVADWGNGLMIVDISNPSSPVLKGSYDTAGDIYGVSISGNYAYVADGDTGLVIVDISNPSSPTLKGNYNTAGIACDVSVLGNYAYVADNDNGLVIVDISDPSSPVLKGNGSTTGYAHGIEVSGNYAYVANSNTGLVIVDISNPSSPTLKGSCDTIVRAKSIAVSGNYAYIADWDNGLVIVDISNPSSPFLKGSCDTPRSAQGVAVSGNYAYVADDDGLVIVDISNPSFPILNKSYNTGGWAQGITVSGNYAYVIDMANGIFIVDISNPSSPILEGMYDTSPIIIENYDYTGSIWSVSVSGNYAYVADEGNGLLIVDISNPSSPILKGSYDTAGLAYDVAVSGNYAYVADSKNGLAIIDISNPSSPILVGNYNTSGYAECVSISGNYAYVAVDDSLVVVDISNPSSPILKGLYAGSAGDIAVSGNYVYASEGVNGLVILKANPESAFTVADFSSNITSGYAPLSIQFNDHSQNATSWNWDFGDGYNSTNQNPIHTYSSAGTYTVNLTVINENRTASKVAKIFVLNTSLEHHHHHH”, for which the protein production entry is listed as “failed”.

As for “MGAAKPIFVEHSIVIDRPAQQVYDYWRKLENLPQIMSHLESVTVLDDKRSRWVAKAPLGTHVEWEAEVVNDKPGERIGWHSLPGATVDNAGSVQFESLPDDKTRVHVALSYRPPAGPLGAAVAKLFGEEPSQQIAEDLQKFKATFEGLEHHHHHH”, the protein production result is “failed”.

As to “MGAGSQTTGAGQKKVQTITVGTGTQFPNICFIDEKGDLTGYDVELIKELDKRLPHYKFTFKTMEFSNLLVSLGQHKVDIVAHQMEKSKEREKKFLFNKVAYNHFPLKITVLQNNDTIRGIEDLKGKRVITSATSNGALVLKKWNEDNGRPFEIAYEGQGANETANQLKSGRADATISTPFAVDFQNKTSTIKEKTVGNVLSNAKVYFMFNKNEQTLSDDIDKALQEIIDDGTLKRLSLKWLGDDYSKEQYLEHHHHHH”, the protein production entry is recorded as “not failed”.

In the case of “MGANLNSAYAAGVKIAIVMGSKSDWATMQFAADVLTTLNVPFHVEVVSAHRTPDRLFSFAEQAEANGLHVIIAGAGGAAHLPGMLAAKTLVPVLGVPVQSAALSGVDSLYSIVQMPRGIPVGTLAIGKAGAANAALLAAQILALHDTELAGRLAHWRQSQTDDVLDNPDPREEA”, the protein production result is recorded as “not failed”.

Take “MGAVVVKDLRKRIGKKEILKGISFEIEEGEIFGLIGPNGAGKTTTLRIISTLIKPSSGIVTVFGKNVVEEPHEVRKLISYLPEEAGAYRNMQGIEYLRFVAGFYASSSSEIEEMVERATEIAGLGEKIKDRVSTYSKGMVRKLLIARALMVNPRLAILDEPTSGLDVLNAREVRKILKQASQEGLTILVSSHNMLEVEFLCDRIALIHNGTIVETGTVEELKERYKAQNIEEVFEEVVKCSENF”: the protein production result is reported as “not failed”.

In the case of “MGDASINIDKETVANYFVIKQGGPINRDHWTVTANTEEKTGEVSAAYPHNGQTISLIDGEINTFWHSKWQGGEVAPPYEIILDMGKENSVSQLGLIARQNALTSMNLEIYAGDDGETWNLIGKYFFDGSIKTEQMVPVKACDARWIRIYIPTLGSGSSVGHLAEIYVYGTDKLEHHHHHH”, the protein production entry was “not failed”.

As to “MGDREKNVGFAASLNILFTIIELIGGILTNSLALLADAMHDFADSLALIVAWFAEKKAKKPATSKMTFGYRRLSLLSAAFATIVLIAGSLFILSQAIPRLLNPEPVNAEGMFLIAIIGVTINGLGYFRLKKGISQNEKILSWHLLEDILGWVVLLIGSVIIGFWNQPIIDPIMTIGFTIFVLWGVFKNAKETFNLLLEGVPEYIDIDEVKESILSVEGTKAVHDLHIWSLEGETDILTAHVVVEDEYLARPDKMRQSIKSRLEKHQIEHSTLELESEGFCSGTECIFELKG”, the protein production result is given as “failed”.

In the case of “MGDSAPARIDTLEIKLLFAGDIMTHGPQIESAKCEGGRVYDFSSSFDTLASRIGAADLAIGNLETTFAGAPYSGYPTFSSPDAMGEALKNAGFDVLTTANNHTADKGKKGIIRTLDMLDSLGIAHTGSYRDIFDRDKMTPLILEVKGVRIAILAYTYGTNGMPVPAPTWVDPIDTVMIKKDLLRADSLGADYRIVQIHWGIEYRKEPDSEQLELARKLHRYGADAIIGSHPHVVQGSQWLKSDSKTSFVIYSMGNFISNQRKPAATRGGMLLSLTLRKVGDRITTHPDYQYVFVNKRTPQGKRVYRLLPVDPFSSDTLPSLPPEEQRDYKEFAKYYQMIPLVLIEREDNRIRNRLQVSQRAFLEHHHHHH”, the protein production entry was “failed”.

Consider “MGDTKVETISRLAQWRIENFGPCSFKKSDPFKVGIWNWHLSIERNRYLSVRLFPELSRVSKEQPPVAKFVLRVSNVGPNRRFYISPVYEKLLRTTDDCVWHVDSSFHGRFTIDVEFLDLKICPVNGGEASPVWPTDATMQSISTQTTLKCLSRMLEESILTDVIIHTADGTLSAHKAILSASSTVFKSMFHHDLMEKESSTIHIDDMSRESCMALLSYLYGNITQEEFWKHRLALLGAANKYDITDLKAACEESLMEDINSSNVLERLQEAWLYQLEKLKKGCLMYLFDFGKIYDVREEISSFFRQADRELMLEMFQEVLSVWKPV”, for which the protein production result was “failed”.

As to “MGEGGEMGVGIFQIDMDWLHRWLRHRRGPGSGKTSGNRNLKPRLTPAAAQQDHRQMLCFMTLNAAVGVLIGICVGAALIFLDIGGLGARIGRAASPFVPVLLVVVPIASLFGAAAAASAILLMPYEKKFRDDDDDARGE”, the protein production result is given as “failed”.

Consider “MGEKELIRVGVVGTGYMGENHVRIYSEMEDVRLIGISDPNSSRVKELAARYETLPFSDHKKMFGKTNLDAISIAAPTTLHCPIVLDALEAGVDVLVEKPIADSVENATAMIESAEEMDRHLMVGHIERFNPAVLKLKEVVDSGVLGKIVSV”, for which the protein production entry is “failed”.

Turning to “MGFPRSIVLIAALLGGAVSGLTACSSFPFWSAGKEEDTDIKDEHADWGPAQFYAEAKHAMMDGSYDKAIKLYEKLEARYPFGDYATQAQIDVAFCYYKNNEPESAIAAVDRFIKLNPTEPHVDYAYYLRGLINYNRGIGFIDRWLPTDSSQRDPGSARDAYNDFETLLNKFPNSVYREDARQRAIALRNNLAMYDIHVADYYMRRRAYVAAIRRSAEVVQKYQRTQAIPHALRIMEDAYRQLDMPQMADDIARVYALNYAEGRLSKDEDYERTVMEEVWDFIGFDK”, the protein production result is “failed”.
